Reference: patent publication US20040166544A1 (published 2004)
Changes are numbered by the printed parent chain. Where “and” joins values, the source holds several entries; their conditions need not be identical. Equal values may be shown once.

B1: c-Met IgG antibody 11986 (antibody, V domains shown)
VH: EVQLVQSGAEVKKPGATLKVSCKVSAYTFTDYSMHWVQQAPGKGLKWMGLIDLEDGNTIYAEEFQDRVTITADTSTDTAYMDLSSLRSEDTAVFYCAISPLRGLTADVFDVWGQGTLVTVSS
VL: QSALTQPASASGSPGQSITISCTGTSSDIGRYDFVSWYQRQPGKAPKLMIYDVINRPSGVSSRFSGSKSGNTASLTISGLQAEDEADYYCSSYAGSTTLYVFGTGTKLTVLG
notes: IgG of scFv PGIA-3-B1; also called 11986 IgG; IgG of scFv PGIA-03-B1 (PGIA-3-B1)
B2: c-Met 11986 Fab (Fab, V domains shown)
VH: B1 VH
VL: B1 VL
notes: VH and VL limits counted as for the IgG
B3: c-Met IgG antibody 12133 (antibody, V domains shown)
VH: QVQLQESGPGLVKPSGTLSLTCAVSGGSISTSDWWSWVRRPPGKGLEWIGEIYHSGSTNYHPSLKSRVTISLDKSKNQFSLKLSSVTAADTAVYYCAREGGHSGSYPLDYWGRGTLVTVSS
VL: NFMLTQPHSVSESPGKTATISCTGSGGSIARSYVQWYQQRPGRAPSIVIYEDYQRPSGVPDRFSGSIDSSSNSASLTITGLKTDDEADYYCQSSDDNNNVVFGGGTKVTVLG
notes: IgG of scFv PGIA-4-A5; also called 12133 IgG; IgG of scFv PGIA-04-A5 (PGIA-4-A5)
B4: c-Met 12133 Fab (Fab, V domains shown)
VH: B3 VH
VL: B3 VL
notes: VH and VL limits counted as for the IgG; also called Fab fragment derived from c-Met antibody 12133
B5: c-Met 12119 Fab (Fab, V domains shown)
VH: B3 VH with V2L
VL: NFMLTQPHSVSESPGKTVTISCARSSGSIASNYVQWYQQRPGSSPTTLIYEDRQRPSGVPDRFSGSIDSSSNSASLTISGLKTEDEADYYCQSYDSSDHVVFGGGTKLTVLG
notes: VH and VL limits counted as for the IgG; also called Fab fragment derived from c-Met antibody 12119
B6: c-Met IgG antibody 11994 (antibody, V domains shown)
VH: B3 VH with R113K
VL: NFMLTQPHSVSESPGKTVTISCTRSSGSIASNYVQWYQQRPGSSPTTVIYEDNQRPSGVPDRFSGSIDSSSNSASLTISGLKTEDEADYYCQSYDSSNQGVVFGGGTKLTVLG
notes: IgG of scFv PGIA-3-A9; also called 11994 IgG; 11994-50
B7: c-Met 11978 Fab (Fab, V domains shown)
VH: not shown
VL: NFMLTQPHSVSESPGKTVTISCTRSSGSIAFDYVQWYQQRPGSAPTTVIYEDNQRPSGVPDRFSASIDSSSNSASLTISALKTEDEADYYCQSYDNSNSWVFGGGTKLTVLG
notes: as for B2
B8: c-Met IgG antibody 12136 (antibody, V domains shown)
VH: QVQLQESGPGLVKPSETLSLTCNVSGGSIRNYFWSWIRQPPGQGLEYIGYIYYSGTTDYNPSLKGRVTISLDTSKTQFSLKLNSVTAADTAFYYCVRGPNKYAFDPWGQGTLVTVSS
VL: SYELTQPPSVSVSPGQTASITCSGDKLGDKFASWYQQKAGQSPVLVIYRDTKRPSGIPERFSGSNSGNTATLTISGTQAMDEADYYCQAWDSSTAVFGTGTKVTVLG
notes: IgG of scFv PGIA-4-A8; also called 12136 IgG; IgG of scFv PGIA-04-A8 (PGIA-4-A8)
B9: c-Met 12136 Fab (Fab, V domains shown)
VH: B8 VH
VL: B8 VL
notes: VH and VL limits counted as for the IgG; also called Fab fragment derived from c-Met antibody 12136
B10: c-Met 12075 Fab (Fab, V domains shown)
VH: QVQLVQSGPEVKKPGASVEVSCKASGYTFTGDYMHWVRQAPGQGPEWMGWINPQTGVTKYAQKFQGRVTMARDTSINTAYMELRGLRSDDTAVYYCVREDHNYDLWSAYNGLDVWGQGTLVTVSS
VL: QSVLTQPPSVSAAPGQKVTISCSGSSSNIGNNHVSWYQQLAGTAPKLLIFDNDKRPSGIPDRFSGSKSGTSATLGITGLQTGDEADYYCGTWDKSPTDIYVFGSGTKLTVLG
notes: VH and VL limits counted as for the IgG; also called Fab fragment derived from c-Met antibody 12075
B11: c-Met IgG antibody 12123 (antibody, V domains shown)
VH: QVQLQESGPGLVKPSATLSLTCAVSGGSISSNHWWSWVRQSPGKGLEWIGEIYTYGGANYNPSLKSRVDISMDKSKNQFSLHLSSVTAADTAVYYCGRHLTGYDCFDIWGQGTLVTVSS
VL: QAVLTQPSSVSGAPGQRVTISCTGSSSNIGAGYDVHWYQQLPGTAPKLLIYGNSNRPSGVPDRFSGSKSGTSASLAITGLQAEDEADYYCQSYDSSLSGVFGTGTQLTVLS
notes: IgG of scFv PGIA-3-B2; The VL reverse cloning primer RH62 codes ...TVLG whereas the scFv entry ends ...TVLS; also called 12123 IgG; IgG of scFv PGIA-03-B2 (PGIA-3-B2)

Assays:
[1] = target: T1, c-Met/Fc Chimera (R&D Systems, catalog # 358-MT-100) (human, UniProt P08581 25-932); test: competition ELISA: displacement of biotinylated HGF from plate-coated c-Met/Fc chimera, IgG, n = 2
T1 construct: extracellular domain; Bought reagent; also called human c-Met-Fc fusion protein; recombinant c-Met protein; Fc part of the bought chimera not given
Protocol: (§1) 96-well Fluoronunc plates were coated with 50 ul of 0.5 ug/ml c-Met/Fc Chimera (R&D Systems, Minneapolis Minn., catalog # 358-MT-100) in phosphate buffered saline (PBS) and the plates were incubated overnight at room temperature. Wells were washed three times with washing buffer (PBS+0.1% Tween 20), blotting the plates on paper towels between each wash. Nonspecific binding in the wells was blocked by the addition of 250 ul of blocking buffer (3.0% milk (Carnation) in PBS) to each well and incubated at room temperature for two hours.
(§2) The c-Met antibodies were diluted in reagent buffer (PBS, 0.5% BSA, 0.05% Tween-20) and titrations were performed in 96 well polypropylene plates. Biotinylated HGF (0.4 ug/ml) (R&D Systems, biotinylated with Pierce #21335 as per manufacturer's instructions) was added to each well. 50 ul of the dilutions were transferred into the Fluoronunc plates containing human c-Met-Fc fusion protein (R&D Systems, #) and the plates were incubated for two hours at room temperature. The plates were washed three times with wash buffer and blotted onto paper towels. 50 ul of europium-labeled Streptavidin (Wallac Perkin Elmer) diluted 1:1000 in Delfia assay buffer (Wallac Perkin Elmer) was added per well and the plates were incubated for one hour at room temperature. The plates were washed seven times with Delfia wash buffer (Tris buffered saline (TBS) supplemented with 0.1% Tween-20) and blotted onto paper towels. 100 ul Delfia enhancer solution (Wallac Perkin Elmer) was added to each well and the plates incubated for 5 minutes on a plate shaker at room temperature. Plates were read on a fluorescence plate reader and analyzed using GraphPad Prism software (GraphPad Software, San Diego, Calif.).
(§3) C-Met antibodies 1A3.3.13 (#HB-11894, ATCC Hybridoma) and 5D5.11.6 (#HB-11895, ATCC Hybridoma) were used as positive controls. MOPC-21 (#M-7894, Sigma) was used as an IgG isotype control and HB-94 (#HB-94, ATCC Hybridoma) was converted into a Fab fragment and used as a Fab isotype control. NK4-Elastase is a kringle to kringle 4 fragment resulting from digesting intact HGF purified from S-114 cells with elastase (Date et al., FEBS Lett. 420:1-6 ([…]).

[2] = target: T1, c-Met/Fc Chimera (R&D Systems, catalog …); test: competition ELISA: displacement of biotinylated HGF from plate-coated c-Met/Fc chimera, Fab, n = 2
Protocol: as §1, §2, §3

[3] = target: c-Met (endogenous, on human cell lines 184B5, HCT-116, DU-145 and NCI H441) (human, UniProt P08581 25-1390); test: cell-based or functional assay
[4] = target: T2, biotinylated c-Met-Fc (R&D Systems, #358-MT-100/CF, 5.1 biotin per c-Met molecule) (human, UniProt P08581 25-932, biotinylated, 5.1 biotin per c-Met molecule (Pierce #21335)); test: SPR (BIAcore), biotinylated c-Met-Fc captured on streptavidin chip, IgG as analyte, bivalent model
T2 construct: extracellular domain; Captured on a streptavidin (SA) chip for the BIAcore study of the IgGs; Fc part of the bought chimera not given
Protocol: The binding properties (on-rate, off-rate and affinity) of c-Met monoclonal antibodies (IgG or Fab versions) with human c-Met extracellular domain was determined using surface plasmon resonance, or BLAcore, technology. For the binding studies with IgG, a low density (<1 ng/mm2) of c-Met-Fc (R&D Systems, #358-MT-100/CF) containing 5.1 biotin per c-Met molecule (prepared with Pierce #21335 as per manufacturer's instructions) was captured onto a SA chip precoated with Streptavidin (BIAcore Inc.). A streptavidin flow cell without adsorbed c-Met-Fc was used as a control cell for non-specificbinding. The antibody sample to be analyzed was prepared in HEPES buffer (0.15M NaCl, 10 mM HEPES, 3.4 mM EDTA, 0.005% surfactant P-20, pH 7.4) to form a set of solutions varied in concentration from 0.78 nM to 100 nM. The HEPES buffer used as the running solution was set at a flow rate of 50 ul/min. Each sample solution was injected over the two flow cells for three minutes, followed by 5 minutes of dissociation. The flow cells were then regenerated with 4.5M MgCl₂ for one minute to remove the bound antibody for the next cycle of binding study. The net sensorgrams (subtraction of sensorgrams from the negative control flow cell as well as that from the buffer blank) obtained for each set of samples were processed simultaneously in a global fitting using a bivalent binding model of the BIAevaluation software program equipped with the system. The on-rate (Kₐ), off-rate (Kd) and binding affinity (KD) were determined from the fitting with KD equal to kd/kₐ.

[5] = target: T1, c-Met/Fc Chimera (R&D Systems, catalog …); test: SPR (BIAcore), c-Met-Fc captured on protein A CM5 chip, Fab as analyte, 1:1 Langmuir model
Protocol: For the binding study of Fab fragments derived from antibodies of the invention, a high density (>2 ng/mm²) of protein A was first immobilized covalently onto a CM5 sensorchip using EDC/NHS amine coupling chemistry [. The flow cell containing c-Met-Fc captured by the protein A was used as the positive control while a flow cell containing only protein A was used as the negative control. The Fab sample to be analyzed was as above for antibodies to form a set of solutions with concentration ranged from 3.9 nM to 500 nM. The HEPES buffer used as the running solution was set at a flow rate of 50 ul/min. For each cycle of binding study, low density (<1 ng/mm²) of c-Met-Fc was captured first onto the positive flow cell. Each sample solution was then injected over the two flow cells (one negative and one positive in series) for three minutes followed by 5 minutes of dissociation. The flow cells were then regenerated with 4.5M MgCl₂ for one minute to remove the bound c-Met-Fc/Fab complexes for the next cycle of binding. The net sensorgrams (subtraction of sensorgrams from the negative control flow cell as well as that from the buffer blank) obtained from the set of samples were fitted simultaneously in a global fitting using a Langmuir 1:1 binding model of the BIAevaluation program equipped with the system. The on-rate (Kₐ), off-rate (Kd) and binding affinity (KD) were determined from the fitting with KD equal to kd/kₐ.

[6] = target: T1, c-Met/Fc Chimera (R&D Systems, catalog …); test: europium (DELFIA) ligand competition ELISA: biotinylated HGF binding to plate-coated c-Met/Fc Chimera, antibody titrated
Protocol: as §1, §2

| Binder | IC50 [1] [nM] | IC50 [2] | Kd [4] [nM] | koff [4] [s⁻¹] | kon [4] [M⁻¹ s⁻¹] | other results |
| --- | --- | --- | --- | --- | --- | --- |
| B1 | 0.52 |  |  |  |  |  |
| B2 |  | 80 nM |  |  |  |  |
| B3 | 0.58 |  | 6 | 0.000598 | 98900 | scatter assay on DU-145 cells, mean object area, agonist (alone), 100 nM IgG; the smaller the number, the more scattering [3]: 241 mean object area; scatter assay on DU-145 cells, mean object area, antagonist (w/30 pM HGF), 100 nM IgG; the smaller the number, the more scattering [3]: 230 mean object area |
| B4 |  |  |  |  |  | Kd [5]: 8.8 nM; koff [5]: 0.00245 s⁻¹; kon [5]: 280000 M⁻¹ s⁻¹ |
| B5 |  | 10.7 nM |  |  |  |  |
| B6 | 0.58 |  | 8.4 | 0.000759 | 90600 | IC50 (read off the curve) [6]: ~0.7 nM |
| B7 |  | 65.9 nM and > 125 nM |  |  |  |  |
| B8 | 1 |  | 0.8 | 0.000229 | 294000 |  |
| B9 |  |  |  |  |  | Kd [5]: 6 nM; koff [5]: 0.00101 s⁻¹; kon [5]: 168000 M⁻¹ s⁻¹ |
| B10 |  | > 125 nM |  |  |  |  |
| B11 | 0.5 |  | 9.7 | 0.00329 | 338000 | scatter assay on DU-145 cells, mean object area, agonist (alone), 100 nM IgG; the smaller the number, the more scattering [3]: 234 mean object area; scatter assay on DU-145 cells, mean object area, antagonist (w/30 pM HGF), 100 nM IgG; the smaller the number, the more scattering [3]: 226 mean object area |
